{"source": "patent US8304206B2", "about": "“Mass spectrometry assays for identifying compounds that activate deacetylases” (Sirtris Pharmaceuticals, Inc., priority 2005, dated 2012)", "proteins": {"B1": {"name": "SIRT1 (Homo sapiens) (protein)", "chain": "MADEAALALQPGGSPSAAGADREAASSPAGEPLRKRPRRDGPGLERSPGEPGGAAPEREVPAAARGCPGAAAAALWREAEAEAAAAGGEQEAQATAAAGEGDNGPGLQGPSREPPLADNLYDEDDDDEGEEEEEAAAAAIGYRDNLLFGDEIITNGFHSCESDEEDRASHASSSDWTPRPRIGPYTFVQQHLMIGTDPRTILKDLLPETIPPPELDDMTLWQIVINILSEPPKRKKRKDINTIEDAVKLLQECKKIIVLTGAGVSVSCGIPDFRSRDGIYARLAVDFPDLPDPQAMFDIEYFRKDPRPFFKFAKEIYPGQFQPSLCHKFIALSDKEGKLLRNYTQNIDTLEQVAGIQRIIQCHGSFATASCLICKYKVDCEAVRGDIFNQVVPRCPRCPADEPLAIMKPEIVFFGENLPEQFHRAMKYDKDEVDLLIVIGSSLKVRPVALIPSSIPHEVPQILINREPLPHLHFDVELLGDCDVIINELCHRLGGEYAKLCCNPVKLSEITEKPPRTQKELAYLSELPPTPLHVSEDSSSPERTSPPDSSVIVTLLDQAAKSNDDLDVSESKGCMEEKPQEVQTSRNVESIAEQMENPDLKNVGSSTGEKNERTSVAGTVRKCWPNRVAKEQISRRLDGNQYLFLPPNRYIFHGAEVYSDSEDDVLSSSSCGSNSDSGTCQSPSLEEPMEDESEIEEFYNGLEDEPDVPERAGGAGFGTDGDDQEAINEAISVKQEVTDMNYPSNKS", "notes": "The SirT1 gene was cloned into a T7-promoter containing vector and transformed into BL21(DE3); His-tag (N); made in house; host or cells: E. coli BL21(DE3)"}}, "substrate": "CCCC[C@H](NC(=O)[C@H](CCCCNC(C)=O)NC(=O)[C@H](CO)NC(=O)[C@H](Cc1c[nH]cn1)NC(=O)[C@H](CO)NC(=O)[C@H](CO)NC(=O)[C@@H](NC(=O)[C@H](CO)NC(=O)[C@H](CCC(N)=O)NC(=O)CNC(=O)[C@H](CCCCNC(=O)CCCC[C@@H]1SC[C@@H]2NC(=O)N[C@@H]21)NC(=O)[C@H](CCC(=O)O)NC(=O)[C@H](CCC(=O)O)NC(C)=O)[C@@H](C)O)C(=O)N[C@@H](CO)C(=O)N[C@H](C(=O)N[C@@H](CCC(=O)O)C(=O)NCC(=O)N[C@@H](CCCCNC(=O)c1ccc2c(c1)C(=O)OC21c2ccc(N(C)C)cc2Oc2cc(N(C)C)ccc21)C(=O)N[C@@H](CCC(=O)O)C(=O)N[C@@H](CCC(=O)O)C(N)=O)[C@@H](C)O", "test": "SIRT1 Km for Acetylated Peptide Substrate (mass spectrometry)", "format": "biochemical, human", "settings": "pH 8.0, 25.0 °C", "experimental": "Briefly, 1 μL of vehicle (DMSO) was added to each well of a Costar 96-well clear round bottom assay plate and 10 μL of 10% formic acid was added to all of the wells in row A. The Acetylated Peptide Substrate was serially diluted. Wells A2, A3, A4, A5, A6, A7, A8, A9, A10, A11 and A12 of a Costar 2 mL 96 well Assay Block were filled with 600 μL of Substrate Dilution Working Solution (SDWS; 4 mM NAD^+, 50 mM Tris HCl pH 8.0, 137 mM NaCl, 2.7 mM KCl, 1 mM MgCl2, 5 mM DTT, and 0.05% BSA). […] The APSTD-WS was serially diluted into SDWS by transferring 600 μL of APSTD-WS from well A1 to […] of the Costar 2 mL 96 well Assay Block. The solution was mixed 5 times and the process was continued by moving across row A, until well A12 was reached.\nThe Enzyme Working Solution (20 nM SIRT1, 50 mM Tris HCl pH 8.0, 137 mM NaCl, 2.7 mM KCl, 1 mM MgCl2, 5 mM DTT, 0.05% BSA) was prepared. […]\nAt 0, 3, 6, 9, 12, 15, 20, and 25 minutes, the reaction was stopped with 10% formic acid and the conversion of substrate to product was determined by mass spectrometry.\nSIRT1 enzyme activity at 12 concentrations of SIRT1 Acetylated Peptide Substrate was monitored by comparing the percent conversion of Acetylated Peptide Substrate to Deacetylated Peptide Product over time. The reaction rate at each substrate concentration was determined as the slope of the product formation versus time plot in the linear range. […]", "note": "Several values for one entry are separate records, joined by “and”; a condition that tells them apart may be missing. Equal entries are not always repeated."}
{"protein": "B1", "values": [{"measurement": "Km", "setting": "other: Sirt1, Mass Spectrometry, present invention", "value": 11.6, "unit": "µM"}, {"measurement": "Km", "setting": "other: single replicate plates, 2 mM NAD+, 1% DMSO", "value": "11.2 µM and 11.9 µM"}]}
